B1: Complement factor H-related protein 4 (Homo sapiens), Q92496-3 (parent)
chain: MLLLINVILTLWVSCANGQEVKPCDFPEIQHGGLYYKSLRRLYFPAAAGQSYSYYCDQNFVTPSGSYWDYIHCTQDGWSPTVPCLRTCSKSDIEIENGFISESSSIYILNKEIQYKCKPGYATADGNSSGSITCLQNGWSAQPICIKFCDMPVFENSRAKSNGMRFKLHDTLDYECYDGYEISYGNTTGSIVCGEDGWSHFPTCYNSSEKCGPPPPISNGDTTSFLLKVYVPQSRVEYQCQSYYELQGSNYVTCSNGEWSEPPRCIHPCIITEENMNKNNIQLKGKSDIKYYAKTGDTIEFMCKLGYNANTSVLSFQAVCREGIVEYPRCE

Variants of B1 are the subject of the experiment “co3_human C3, P01024”. To be noted: with co3_human C3, P01024.
Chain of co3_human C3, P01024 (P01024 whole entry): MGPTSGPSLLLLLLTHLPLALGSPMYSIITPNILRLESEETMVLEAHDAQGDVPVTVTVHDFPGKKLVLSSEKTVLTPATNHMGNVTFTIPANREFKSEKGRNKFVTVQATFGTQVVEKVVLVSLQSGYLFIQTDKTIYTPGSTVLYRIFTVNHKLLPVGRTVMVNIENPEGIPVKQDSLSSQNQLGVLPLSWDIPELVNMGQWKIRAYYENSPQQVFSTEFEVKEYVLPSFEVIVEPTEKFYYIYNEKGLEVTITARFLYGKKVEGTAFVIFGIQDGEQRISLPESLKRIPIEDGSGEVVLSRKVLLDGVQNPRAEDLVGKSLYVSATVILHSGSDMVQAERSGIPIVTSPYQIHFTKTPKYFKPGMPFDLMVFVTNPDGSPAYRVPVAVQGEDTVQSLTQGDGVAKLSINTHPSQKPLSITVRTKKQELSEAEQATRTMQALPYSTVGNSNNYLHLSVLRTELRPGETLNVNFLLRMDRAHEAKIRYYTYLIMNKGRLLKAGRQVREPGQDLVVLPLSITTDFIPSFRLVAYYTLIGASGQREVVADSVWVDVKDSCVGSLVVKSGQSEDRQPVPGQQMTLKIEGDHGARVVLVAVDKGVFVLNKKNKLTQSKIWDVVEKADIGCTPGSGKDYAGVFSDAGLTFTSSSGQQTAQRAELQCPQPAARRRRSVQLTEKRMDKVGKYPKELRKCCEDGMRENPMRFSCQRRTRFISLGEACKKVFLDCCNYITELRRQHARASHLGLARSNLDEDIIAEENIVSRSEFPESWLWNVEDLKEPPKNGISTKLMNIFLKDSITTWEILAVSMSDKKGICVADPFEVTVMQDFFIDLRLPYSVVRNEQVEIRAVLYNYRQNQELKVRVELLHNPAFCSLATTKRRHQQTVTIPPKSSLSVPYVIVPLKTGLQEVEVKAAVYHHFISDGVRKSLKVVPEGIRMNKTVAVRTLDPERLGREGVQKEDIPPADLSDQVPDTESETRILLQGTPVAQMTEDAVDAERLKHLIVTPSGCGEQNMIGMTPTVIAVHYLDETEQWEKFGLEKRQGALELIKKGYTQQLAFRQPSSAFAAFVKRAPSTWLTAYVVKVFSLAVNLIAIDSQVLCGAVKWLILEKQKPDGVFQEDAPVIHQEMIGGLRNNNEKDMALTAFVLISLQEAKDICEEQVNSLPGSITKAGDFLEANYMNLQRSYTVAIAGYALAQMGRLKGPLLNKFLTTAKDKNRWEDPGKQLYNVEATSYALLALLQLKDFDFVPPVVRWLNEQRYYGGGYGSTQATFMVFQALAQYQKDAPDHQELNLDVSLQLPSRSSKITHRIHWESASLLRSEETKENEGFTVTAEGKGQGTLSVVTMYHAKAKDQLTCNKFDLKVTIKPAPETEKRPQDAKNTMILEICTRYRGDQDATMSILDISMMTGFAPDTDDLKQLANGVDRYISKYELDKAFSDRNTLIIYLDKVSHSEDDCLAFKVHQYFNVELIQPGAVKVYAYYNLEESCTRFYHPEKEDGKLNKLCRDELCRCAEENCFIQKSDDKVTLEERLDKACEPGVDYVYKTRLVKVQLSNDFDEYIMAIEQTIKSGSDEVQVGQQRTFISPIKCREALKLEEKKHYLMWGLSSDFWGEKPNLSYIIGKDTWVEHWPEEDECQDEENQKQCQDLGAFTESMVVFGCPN
The experiment “cfab_human CFB, P00751” covers variants of B1. To be noted: with cfab_human CFB.
The variants in the experiment “prop_human CFP, P27918” derive from B1. The following applies: with prop_human CFP.

Chain of prop_human CFP, P27918 (P27918 whole entry): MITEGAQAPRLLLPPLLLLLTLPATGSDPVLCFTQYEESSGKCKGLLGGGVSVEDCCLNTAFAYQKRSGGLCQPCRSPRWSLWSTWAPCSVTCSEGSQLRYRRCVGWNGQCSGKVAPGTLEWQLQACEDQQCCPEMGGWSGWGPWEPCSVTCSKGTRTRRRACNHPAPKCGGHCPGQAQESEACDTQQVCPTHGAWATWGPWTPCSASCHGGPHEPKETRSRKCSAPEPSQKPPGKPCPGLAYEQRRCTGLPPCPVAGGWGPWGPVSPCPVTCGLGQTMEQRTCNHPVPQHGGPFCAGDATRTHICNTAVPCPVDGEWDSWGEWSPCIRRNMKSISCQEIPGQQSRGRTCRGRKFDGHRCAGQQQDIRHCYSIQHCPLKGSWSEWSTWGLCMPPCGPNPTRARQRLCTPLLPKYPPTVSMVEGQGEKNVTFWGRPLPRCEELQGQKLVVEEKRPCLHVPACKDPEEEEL
Chain of cfab_human CFB, P00751 (P00751 whole entry): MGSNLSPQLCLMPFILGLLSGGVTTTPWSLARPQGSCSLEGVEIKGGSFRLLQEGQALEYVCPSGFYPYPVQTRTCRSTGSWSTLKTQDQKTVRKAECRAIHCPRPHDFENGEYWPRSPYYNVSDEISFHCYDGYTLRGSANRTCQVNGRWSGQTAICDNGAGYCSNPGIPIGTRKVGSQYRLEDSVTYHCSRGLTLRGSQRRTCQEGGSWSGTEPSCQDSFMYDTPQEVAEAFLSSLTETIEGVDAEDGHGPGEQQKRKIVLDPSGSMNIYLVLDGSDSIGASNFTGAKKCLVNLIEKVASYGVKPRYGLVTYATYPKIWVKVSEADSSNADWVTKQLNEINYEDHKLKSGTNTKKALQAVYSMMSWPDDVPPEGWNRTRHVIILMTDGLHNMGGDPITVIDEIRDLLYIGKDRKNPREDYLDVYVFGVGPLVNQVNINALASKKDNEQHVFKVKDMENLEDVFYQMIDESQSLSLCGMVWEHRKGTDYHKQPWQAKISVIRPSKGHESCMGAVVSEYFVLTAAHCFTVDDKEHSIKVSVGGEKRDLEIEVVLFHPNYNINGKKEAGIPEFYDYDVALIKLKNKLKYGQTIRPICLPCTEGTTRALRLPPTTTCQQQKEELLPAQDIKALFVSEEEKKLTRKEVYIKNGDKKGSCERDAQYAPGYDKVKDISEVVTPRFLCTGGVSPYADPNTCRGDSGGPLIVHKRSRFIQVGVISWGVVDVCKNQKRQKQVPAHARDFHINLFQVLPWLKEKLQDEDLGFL

Consider D221G, for which the “effect of a mutation on the interaction” value with co3_human C3, P01024 is “decreasing interaction strength”; in the experiment with cfab_human CFB, P00751, “decreasing interaction strength”; with prop_human CFP, P27918, “decreasing interaction strength”.

D221G;K290A: the “effect of a mutation on the interaction” value with co3_human C3, P01024 was “disrupting interaction strength”; with cfab_human CFB, P00751, “disrupting interaction strength”; with prop_human CFP, P27918 it was “disrupting interaction strength”.

These data come from IntAct's records for PubMed 22518841.
